Measurements as given in article PMC4197845.
Like-named read-outs stand apart in the source and are kept apart here.

Experiments:
[1] = molecular target: epidermal growth factor receptor on live cells (human (endogenous in UM-SCC-14C and A431)) (UniProt P00533); experiment: radioligand binding
[2] = molecular target: epidermal growth factor receptor on live cells (human (endogenous in UM-SCC-14C and A431)) (UniProt P00533); experiment: radioligand binding; remark: listed apart in the source

Kd [1]: 7.5 nM
Kd [2]: 7.1 nM
Substance: bi-paratopic nanobody 9G8-7D12 (bispecific antibody)
